The text below walks through data of PMC12149301.

Usually stoichiometry N stands for the number of molecules, sites or subunits per partner or assembly.

This assay deals with CDTb D623A + D734A Ca^2+-binding double mutant, active form (Clostridioides difficile). The assay is described as follows: cryo-EM structure.

For the substance “CDTb D623A + D734A Ca^2+-binding double mutant, active form (natural protein)”, the stoichiometry N stood at 7.
